Measured values taken from the supplement of paper PMC12764529.
± gives the half width of the 95% confidence interval.

Assays:
[1] = folding stability dG unfold (combined trypsin and chymotrypsin); higher = more stable
Summary of the method: (§1)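 Unfolding free energy was derived, per protease or combined, by relating Bayesian-fitted K50 values from sequencing counts to a sequence-predicted unfolded-state K50 and a shared folded-state K50. The underlying digests exposed cysteine-free mini-proteins under 80 residues, in a PA-tagged cDNA display construct, to trypsin and chymotrypsin at 11 threefold-diluted concentrations and to a no-protease condition. A filter kept only designs with AlphaFold2 dimer inter-PAE above 15.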

[2] = folding stability dG unfold from trypsin proteolysis; higher = more stable
Summary of the method: as §1

[3] = folding stability dG unfold from chymotrypsin proteolysis; higher = more stable
Summary of the method: as §1

Sequence | folding stability dG unfold [1] | folding stability dG unfold [2] | folding stability dG unfold [3]
SAGGSAFPIRIKDDNQKKIMIPFDSPEELEDLLKEPGIDKVDPEPNPDGNQPWFTIDLPNGKIELWSAGGSA [r15_632_TrROS] | -0.826 ± 0.38 kcal/mol | -1.53 ± 0.5 kcal/mol | -1.04 ± 0.66 kcal/mol
SAWIPIDSPEEAKDIAKEIADNYGLEDTKVEPMPDNYVVVKLEFEMPNENGQKRKRNITIYYDPDGKFWSAG [r14_420_TrROS] | 1.1 ± 0.099 kcal/mol | 0.973 ± 0.04 kcal/mol | 1.07 ± 0.083 kcal/mol
SAGGPEIVKLDFTLDPNGNLVFTFELKDGTKYEIKINPENPTIEIKEIEKIEPKPIPEDDPELLKEKSAGGS [r16_482_TrMRF] | 2.49 ± 0.78 kcal/mol | 1.54 ± 0.17 kcal/mol | 3.24 ± 0.059 kcal/mol
SAGGSAGGSAGGAVTTNKDVPLPGPFSIGTVTVSPPDPATPVVTFNSYEGNGPVTLTVPVSAGGSAGGSAGG [r11_1013_JUSTAS] | 0.921 ± 0.04 kcal/mol | 1.24 ± 0.015 kcal/mol | 0.321 ± 0.11 kcal/mol
SAGDLLKNLPPEIVEVEEVKTLPDGTKYFLVKVKKDGKERVFVIELDKNGKIVKIEEMSKEEAEKLLKKSAG [r5_73_TrROS_Hall] | 3.32 ± 0.17 kcal/mol | 1.84 ± 0.088 kcal/mol | 3.74 ± 0.097 kcal/mol
GMIVEIVESPEGTVTLYEVLLPGGTPILVGAADEEKLRERVAKELGVSFEKLKITKTTTLSPEELAALLAAS [r1_119_JUSTAS] | 1.66 ± 0.14 kcal/mol | 1.4 ± 0.02 kcal/mol | 1.73 ± 0.053 kcal/mol
SAGGSAGGSITTVTGVYKTPDGNPTAATFEVANKPDGTVTYTVTVPGTGKTFSTDSLDLVTVDGSAGGSAGG [r6_255_JUSTAS] | 0.485 ± 0.042 kcal/mol | 0.296 ± 0.027 kcal/mol | 0.563 ± 0.072 kcal/mol
SAGGSAGGSAGGDNRLPIPVKTPVVVVPADEAREEIRATLPPDAYRVEEERGDYVTISLGSAGGSAGGSAGG [r7_670_JUSTAS] | 0.847 ± 0.049 kcal/mol | 0.481 ± 0.044 kcal/mol | 1.05 ± 0.022 kcal/mol
SAGGSAGGSTLEEVRKIAEEAVKKGYPYVVISAPGGLKKVFKVEEDDIVEIPDSEGYTVELLSSAGGSAGGS [r20_44_TrMRF] | 0.52 ± 0.12 kcal/mol | 0.202 ± 0.07 kcal/mol | 0.85 ± 0.14 kcal/mol
SAGGSAGGSAGTIENVTVVGSKEFTAPGGVPTLIEYAKLPDGGTYTVTWTGDTTTTTVFPSAGGSAGGSAGG [r17_294_JUSTAS] | 0.624 ± 0.069 kcal/mol | 0.414 ± 0.021 kcal/mol | 0.675 ± 0.14 kcal/mol
SAGGSAGGSKKKPPPVKVKIRVVVDGKVYEIEIEVDPNMTVEEIKEALRKLLGPDIKEVEIEPSAGGSAGGS [r12_300_TrROS_Hall] | 3.07 ± 0.64 kcal/mol | 2.91 ± 0.29 kcal/mol | 1.93 ± 0.25 kcal/mol
SAGKRTIMIPFNVKPNQIRNIAKDIVEMHPGWKIKSIKVFNPNNGEPQELPLGDVPPNEPVWIKVEIEPSAG [r5_357_TrROS] | 2.29 ± 0.15 kcal/mol | 2.36 ± 0.1 kcal/mol | 2.21 ± 0.05 kcal/mol
SAGGSAGGSAGGKEYKVVEFEVLLEDPEPVKAVALIDPDGPVRVFLGDKVYTFKRDELGSAGGSAGGSAGGS [r10_649_TrMRF] | 0.766 ± 0.073 kcal/mol | -0.081 ± 0.071 kcal/mol | 1.13 ± 0.13 kcal/mol
SAGGSAGGSAGKKVTLKVLVKNENGKLYMFEAEYEFDENGKLVKVKVKVYEVEVKDLKLPSAGGSAGGSAGG [r11_1019_TrROS_Hall] | 2.86 ± 0.16 kcal/mol | 2.66 ± 0.13 kcal/mol | 3.02 ± 0.039 kcal/mol
SAGMVIKIKASEELRELLKKLGLSEEEVKKLKIKLKVNGKEVEVEVEVDKETGMIYVRFKDTGKTFKLPSAG [r5_545_TrROS_Hall] | 1.53 ± 0.13 kcal/mol | 1.61 ± 0.042 kcal/mol | 1.32 ± 0.15 kcal/mol
SAGTADELVERAKEFARELAEEFGYKVDVDVKVQPTPDYYTIKVTVTFRNPGGMTWRFPFTITIPKEQFSAG [r5_609_TrROS] | 4.29 ± 0.16 kcal/mol | 3.45 ± 0.15 kcal/mol | 4.91 ± 0.14 kcal/mol
SAGGMLPDTLKLAREIAKELGINRIEPLESGEVVLYLPEDKVIVIDTINGIPRVRIYNKDEWIEIPISAGGS [r16_296_TrMRF] | 4.26 ± 0.15 kcal/mol | 3.65 ± 0.096 kcal/mol | 4.56 ± 0.08 kcal/mol
SAGGSAGGSAGGMATTTTKIEIYPGTGKVKTTTTVTDPSTGTTTTTTTTEETSLEELTSSAGGSAGGSAGGS [r10_173_JUSTAS] | 0.345 ± 0.13 kcal/mol | -0.0031 ± 0.05 kcal/mol | 0.657 ± 0.082 kcal/mol
SAGMTTVEVTRTFPADVPVTEEDLELAEKEREEIAAELPESYVVTLASVTYERRPDSWTVTATFTITAPSAG [r5_121_JUSTAS] | 1.85 ± 0.045 kcal/mol | 1.47 ± 0.017 kcal/mol | 2.11 ± 0.06 kcal/mol
SAGGSAGMNRVSLKPLPDGTYEVTITYPDGSTSTYTVPGPAVSLEEILKRLNIPESIEVEDVEPLGSAGGSA [r15_167_JUSTAS] | 3.52 ± 0.075 kcal/mol | 2.64 ± 0.089 kcal/mol | 3.87 ± 0.059 kcal/mol
SAGGMVTKTYEFEGENGGKILIEVKEDPDKPVVTVKFYRPDGKPLFEAEIEADSIEDAIQQAKDLLASAGGS [r16_158_TrMRF] | 3.66 ± 0.13 kcal/mol | 3.45 ± 0.12 kcal/mol | 3.76 ± 0.11 kcal/mol

Sequence | folding stability dG unfold [1] | folding stability dG unfold [2] | folding stability dG unfold [3]
SAGGMKIEIEIEMTPEEVRKAIEELAKALGLKIVKVEVEVERKEDGTLRVRVTIEIEPLPEEELEPESAGGS [r8_374_TrROS_Hall] | 4 ± 0.25 kcal/mol | 3.63 ± 0.16 kcal/mol | 4.32 ± 0.18 kcal/mol
SAGGSANEILEKLGYPEENIVERKKVFKLPNGTELYEYVIPKTENGVTATILVEKTPKGVKIKVLPSAGGSA [r15_813_JUSTAS] | 0.318 ± 0.22 kcal/mol | -0.642 ± 0.44 kcal/mol | 0.414 ± 0.25 kcal/mol
SAGGSAGGSAGGIHIPAYEAIDFAKENADNGEPVPIEVHNPGNGKPEEREITPDDLDKISAGGSAGGSAGGS [r10_779_TrROS] | 0.454 ± 0.06 kcal/mol | 0.402 ± 0.039 kcal/mol | 0.428 ± 0.016 kcal/mol
SAGGSAGGSAGGSAPNVKLKVEVVTVKVENAKITLPDGRTITLKPGDTVTITKVTLEPASAGGSAGGSAGGS [r4_26_TrROS_Hall] | 2.04 ± 0.22 kcal/mol | 2.32 ± 0.088 kcal/mol | 2.05 ± 0.085 kcal/mol
SAGGSAGGSAGWLKLKFEFTFMIIIWNDDGNNELVMIPIRIRITMTIPPIKYDPDGKLKLSAGGSAGGSAGG [r11_558_TrROS] | 3.51 ± 0.22 kcal/mol | 2.87 ± 0.22 kcal/mol | 3.72 ± 0.067 kcal/mol
SAGGGAEELAKALAEELEKEGLIKEVEVEVRVRPDGSIEVRIKVKVEPPPPPPPVTVVRDENGEERLLSAGG [r13_957_TrROS_Hall] | 1.11 ± 0.31 kcal/mol | 0.972 ± 0.097 kcal/mol | 0.601 ± 0.12 kcal/mol
SAGGSAGGKIEIVFETPSGDIVPITYDPKTKKVDVTVRNKDGKPSEELKEKAIELAKKLIEELESAGGSAGG [r6_224_TrMRF] | 0.519 ± 0.26 kcal/mol | 0.29 ± 0.25 kcal/mol | 1.05 ± 0.15 kcal/mol
SAGGSAGGSAGGSDPVKVTVTFTATVTVTLPDGGTAPVTLTVTVTAELPPGQSVEDFVASAGGSAGGSAGGS [r4_126_TrMRF] | 3.3 ± 0.073 kcal/mol | 2.6 ± 0.033 kcal/mol | 3.65 ± 0.055 kcal/mol
SAGSPVTVPLTLTLTYTVNNPEGPEVLKTETIPLPLVFSPEELDDEETKALLQALVDALPDDVSEVVLESAG [r5_849_JUSTAS] | 1.38 ± 0.046 kcal/mol | 1.32 ± 0.02 kcal/mol | 1.43 ± 0.079 kcal/mol
SAGGSAGGSAGFNFDIELERDPNGRARVMIKIPLPNGKHYIVIYEFDPDSGKMETKIFPVSAGGSAGGSAGG [r11_107_TrROS] | 3.43 ± 0.19 kcal/mol | 3.07 ± 0.086 kcal/mol | 3.82 ± 0.12 kcal/mol
SAGGMSTTYTLKYPGTTVTVTFNPGSVTVDDTDPANPVTKPLPVPPGKPLTLAEVKAALAAAGYAVAESAGG [r13_687_JUSTAS] | 0.0161 ± 0.21 kcal/mol | -0.204 ± 0.15 kcal/mol | 0.0182 ± 0.33 kcal/mol
SAGGSAGGSAGGDKNDLSPGATISTYTNPGSFTVTLPTGETVTLPKTVTTTVTFFDSTNSAGGSAGGSAGGS [r10_643_JUSTAS] | 0.227 ± 0.08 kcal/mol | 0.254 ± 0.072 kcal/mol | 0.104 ± 0.14 kcal/mol
SAGGSAGGSAGGKYKIKEIKVEEVDGKKYVKLVIYDKNGKPVKTIVMSLEELKKLPPELLSAGGSAGGSAGG [r7_263_TrROS_Hall] | 1.89 ± 0.22 kcal/mol | 1.55 ± 0.041 kcal/mol | 2.37 ± 0.12 kcal/mol
SAGGSAGGKITLLDEEEIEEVAKELGIDPENIRVIKVENEIIAILSKAKPLTPEKLKEIVEKLKSAGGSAGG [r6_243_JUSTAS] | 0.934 ± 0.055 kcal/mol | 1.06 ± 0.021 kcal/mol | 0.686 ± 0.029 kcal/mol
SAGGSAGGSAGGMYKVTITVGGKEITIEVSEEELEELLKALEDEGYEIKEIRVEKLPEESAGGSAGGSAGGS [r10_405_TrROS_Hall] | 3.63 ± 0.11 kcal/mol | 3.91 ± 0.23 kcal/mol | 3.57 ± 0.097 kcal/mol
SAGGMPVGVARVRTEAGDKVLEFTVEVPADVGAVEIRVKLKPDPLTGEPVVEEILEVRTYRAPPDVELSAGG [r13_568_TrMRF] | 0.887 ± 0.055 kcal/mol | 0.84 ± 0.047 kcal/mol | 0.837 ± 0.075 kcal/mol
SASSSTTTSSGTLEEVLQQVEDYLKANPNTLVTIAPPDGTTTTVDLSYSPSIAVNGDPSGLTTVTITNSSAG [r14_807_JUSTAS] | 1.23 ± 0.09 kcal/mol | 1.57 ± 0.057 kcal/mol | 0.932 ± 0.032 kcal/mol
SAGGKKKPKVKTITITLPKKDIKIGDVITAEEIAKLLGLPKNAKIKVVEVKYDKETGEVTIKIEIYESAGGS [r16_165_TrROS_Hall] | 2.96 ± 0.11 kcal/mol | 1.98 ± 0.045 kcal/mol | 3.29 ± 0.1 kcal/mol
SKVEIEVERLPDGTLLVRATAEIPGIPGEKIELAVLVRLPAPERVEVRLLAAPPVETVTETRTYSEEEKKSA [r9_1009_TrROS_Hall] | 1.46 ± 0.17 kcal/mol | 1.27 ± 0.12 kcal/mol | 1.52 ± 0.11 kcal/mol
SAMKEGETVRIELVVVVPPGASVEELADALRALFGPDAEIRVEVEEVTVEVDGKTYRVLTVRVEIRLRKSAG [r14_633_TrROS_Hall] | 4.18 ± 0.057 kcal/mol | 3.44 ± 0.05 kcal/mol | 4.5 ± 0.059 kcal/mol
SAGGSAGGSAMRPVSFTLVSTETAPNGVKVTKYVLTEPTGPAREYTSTNLLVEGSSLTDLSSAGGSAGGSAG [r3_261_JUSTAS] | 0.202 ± 0.087 kcal/mol | 0.0443 ± 0.084 kcal/mol | 0.239 ± 0.1 kcal/mol
